Results reported in patent publication US20190142971A1, “FORMULATION AND DELIVERY OF MODIFIED NUCLEOSIDE, NUCLEOTIDE, AND NUCLEIC ACID COMPOSITIONS” (ModernaTX, Inc., priority 2013, published 2019).

What was measured:
Type in all cases: in vivo
mice [1] = assay: Example 42B: EPO mRNA dose response IM in mice (Table 68); details: Dose Vol. (μl/mouse) 100, 13 hours
Procedure: The mice were bled at 13 hours after the injection to determine the concentration of the human polypeptide in serum in pg/mL.

[2] = test system: non-human primates (cynomolgus monkey); assay: Example 21: LNP IV in non-human primates, serum EPO/G-CSF ELISA (Table 37); details: for Average Serum Concentration / Female NHP Serum Concentration / Male NHP Serum Concentration: 0.05 mg/kg IV
Procedure: (§1) Formulations, listed in Table 33, were characterized by particle size, zeta potential, and encapsulation.
LNP formulations, shown in Table 33 (above), were administered to non-human primates (NHP) (cynomolgus monkey) (n=2) as a bolus intravenous injection (IV) over approximately 30 seconds using a hypodermic needle, which may be attached to a syringe/abbocath or butterfly if needed. The NHP were administered a single modified mRNA IV dose of 0.05 mg/kg of EPO or G-CSF or 0.005 mg/kg of EPO in a dose volume of 0.5 mL/kg. The NHPs were bled 5-6 days before dosing with the modified mRNA LNP formulations to determine protein expression in the serum and a baseline complete blood count. After administration with the modified mRNA formulation the NHP were bled at 8, 24, 48 and 72 hours to determined protein expression. At 24 and 72 hours after administration the complete blood count of the NHP was also determined. Protein expression of G-CSF and EPO was determined by ELISA. Urine from the NHPs was collected over the course of the entire experiment and analyzed to evaluate clinical safety. Samples were collected from the NHPs after they were administered with G-CSF or EPO modified mRNA formulations to determine protein expression using ELISA. Clinical chemistry, hematology, urinalysis and cytokines of the non-human primates were also analyzed.

mice [3] = assay: Example 19A: LNP IV in mice, serum EPO/G-CSF ELISA (Table 36)
Procedure: as §1
LNP formulations, shown in Table 33 (above), were administered to mice (n=4) intravenously (IV) at a single modified mRNA dose 0.05 mg/kg or 0.005 mg/kg. There was also 3 control groups of mice (n=4) that were untreated. The mice were bled at 2 hours, 8 hours, 24 hours, 48 hours and 72 hours after they were administered with G-CSF or EPO modified mRNA formulations to determine the protein expression. Protein expression of G-CSF and EPO were determined using ELISA.

[4] = test system: non-human primates (cynomolgus monkey); assay: Example 22: NHP cytokine interferon-alpha (Table 47)
Procedure: (§2) LNP formulations, shown in Table 33 (above), were administered to non-human primates (NHP) (cynomolgus monkey) (n=2) as intravenous injection (IV). The NHP were administered a single modified mRNA IV dose of 0.5 mg/kg, 0.05 mg/kg or 0.005 mg/kg of G-CSF or EPO in a dose volume of 0.5 mL/kg. The NHPs were bled before dosing with the modified mRNA LNP formulations to determine protein expression in the serum and a baseline complete blood count. After administration with the G-CSF modified mRNA formulation the NHP were bled at 8, 24, 48 and 72 hours to determined protein expression. After administration with the EPO modified mRNA formulation the NHP were bled at 8, 24, 48, 72 hours and 7 days to determined protein expression.

[5] = test system: non-human primates (cynomolgus monkey); assay: Example 22: LNP IV in non-human primates, serum G-CSF/EPO ELISA (Tables 38, 39)
Procedure: as §2
Samples collected from the NHPs after they were administered with G-CSF or EPO modified mRNA formulations were analyzed by ELISA to determine protein expression. Neutrophil and reticulocyte count was also determined pre-dose, 24 hours, 3 days, 7 days, 14 days and 18 days after administration of the modified G-CSF or EPO formulation.

For “Luciferase: luciferase mRNA, SEQ ID NO: 14, Cap1, fully modified with 5-methylcytosine and pseudouridine”, the “Average Protein Product, serum” value (mice [1]) was 0.0 pg/mL.

B1: G-CSF: modified mRNA encoding human G-CSF, SEQ ID NO: 4, Cap1, fully modified with 5-methylcytosine and pseudouridine; LNP-formulated in Examples 16-22 (nucleic acid)
chain: GGGAAAUAAGAGAGAAAAGAAGAGUAAGAAGAAAUAUAAGAGCCACCAUGGCCGGUCCCGCGACCCAAAGCCCCAUGAAACUUAUGGCCCUGCAGUUGCUGCUUUGGCACUCGGCCCUCUGGACAGUCCAAGAAGCGACUCCUCUCGGACCUGCCUCAUCGUUGCCGCAGUCAUUCCUUUUGAAGUGUCUGGAGCAGGUGCGAAAGAUUCAGGGCGAUGGAGCCGCACUCCAAGAGAAGCUCUGCGCGACAUACAAACUUUGCCAUCCCGAGGAGCUCGUACUGCUCGGGCACAGCUUGGGGAUUCCCUGGGCUCCUCUCUCGUCCUGUCCGUCGCAGGCUUUGCAGUUGGCAGGGUGCCUUUCCCAGCUCCACUCCGGUUUGUUCUUGUAUCAGGGACUGCUGCAAGCCCUUGAGGGAAUCUCGCCAGAAUUGGGCCCGACGCUGGACACGUUGCAGCUCGACGUGGCGGAUUUCGCAACAACCAUCUGGCAGCAGAUGGAGGAACUGGGGAUGGCACCCGCGCUGCAGCCCACGCAGGGGGCAAUGCCGGCCUUUGCGUCCGCGUUUCAGCGCAGGGCGGGUGGAGUCCUCGUAGCGAGCCACCUUCAAUCAUUUUUGGAAGUCUCGUACCGGGUGCUGAGACAUCUUGCGCAGCCGUGAAGCGCUGCCUUCUGCGGGGCUUGCCUUCUGGCCAUGCCCUUCUUCUCUCCCUUGCACCUGUACCUCUUGGUCUUUGAAUAAAGCCUGAGUAGGAAG
modifications: Cap1, 5-methylcytosine, pseudouridine
With B1 the “Average Serum Concentration” value ([2]; 8 hours) was 2,506 pg/ml, the “Female NHP Serum Concentration” value ([2]; 8 hours) was 3289 pg/mL and the “Male NHP Serum Concentration” value ([2]; 8 hours) was 1722 pg/mL. For the same molecule, the “Average Serum Concentration” value ([2]; 24 hours) was 515 pg/mL, the “Female NHP Serum Concentration” value ([2]; 24 hours) was 722 pg/mL and the “Male NHP Serum Concentration” value ([2]; 24 hours) was 307 pg/mL. The “Average Serum Concentration” value ([2]; 48 hours) was 0 pg/mL, the “Female NHP Serum Concentration” value ([2]; 48 hours) was 0 pg/mL and the “Male NHP Serum Concentration” value ([2]; 48 hours) was 0 pg/mL. The “Average Serum Concentration” value ([2]; 72 hours) was 0 pg/mL, the “Female NHP Serum Concentration” value ([2]; 72 hours) was 0 pg/mL and the “Male NHP Serum Concentration” value ([2]; 72 hours) was 0 pg/mL. The “Average Serum Concentration” value ([2]; Pre-bleed) was 0 pg/mL, the “Female NHP Serum Concentration” value ([2]; Pre-bleed) was 0 pg/mL and the “Male NHP Serum Concentration” value ([2]; Pre-bleed) was 0 pg/mL. For the same molecule, the “protein expression detectable out to” value ([2]; NHP IV, 0.05 mg/kg) was 24 h, the “EPO / G-CSF Serum Concentration” value (mice [3]; 0.005 mg/kg, 2 hours) was 3,447.8 pg/ml and the “EPO / G-CSF Serum Concentration” value (mice [3]; 0.005 mg/kg, 8 hours) was 11,454.0 pg/ml. For the same molecule, the “EPO / G-CSF Serum Concentration” value (mice [3]; 0.005 mg/kg, 24 hours) was 4,960.2 pg/ml, the “EPO / G-CSF Serum Concentration” value (mice [3]; 0.005 mg/kg, 48 hours) was 686.4 pg/mL and the “EPO / G-CSF Serum Concentration” value (mice [3]; 0.05 mg/kg, 2 hours) was 20,951.4 pg/ml. The “EPO / G-CSF Serum Concentration” value (mice [3]; 0.05 mg/kg, 8 hours) was 70,012.8 pg/ml, the “EPO / G-CSF Serum Concentration” value (mice [3]; 0.05 mg/kg, 24 hours) was 19,356.2 pg/ml and the “EPO / G-CSF Serum Concentration” value (mice [3]; 0.05 mg/kg, 48 hours) was 1,963.0 pg/ml. For the same molecule, the “EPO / G-CSF Serum Concentration” value (mice [3]; 0.05 mg/kg, 72 hours) was 47.3 pg/mL, the IFN-alpha ([4]; 0.005 mg/kg, 4 days, Female NHP) was 0 pg/mL and the IFN-alpha ([4]; 0.005 mg/kg, 4 days, Male NHP) was 0 pg/mL. For the same molecule, the IFN-alpha ([4]; 0.005 mg/kg, Day 1 + 8 hr, Female NHP) was 0 pg/mL, the IFN-alpha ([4]; 0.005 mg/kg, Day 1 + 8 hr, Male NHP) was 0 pg/mL and the IFN-alpha ([4]; 0.005 mg/kg, Pre-dose, Female NHP) was 0 pg/mL. It also gave an IFN-alpha ([4]; 0.005 mg/kg, Pre-dose, Male NHP) of 0 pg/mL, an IFN-alpha ([4]; 0.05 mg/kg, 4 days, Female NHP) of 0 pg/mL and an IFN-alpha ([4]; 0.05 mg/kg, 4 days, Male NHP) of 0 pg/mL. It also gave an IFN-alpha ([4]; 0.05 mg/kg, Day 1 + 8 hr, Female NHP) of 0 pg/mL, an IFN-alpha ([4]; 0.05 mg/kg, Day 1 + 8 hr, Male NHP) of 0 pg/mL and an IFN-alpha ([4]; 0.05 mg/kg, Pre-dose, Female NHP) of 0 pg/mL. The IFN-alpha ([4]; 0.05 mg/kg, Pre-dose, Male NHP) was 0 pg/mL, the IFN-alpha ([4]; 0.5 mg/kg, 4 days, Female NHP) was 0 pg/mL and the IFN-alpha ([4]; 0.5 mg/kg, 4 days, Male NHP) was 0 pg/mL. It also gave an IFN-alpha ([4]; 0.5 mg/kg, Day 1 + 8 hr, Female NHP) of 529.2 pg/mL, an IFN-alpha ([4]; 0.5 mg/kg, Day 1 + 8 hr, Male NHP) of 503.8 pg/mL and an IFN-alpha ([4]; 0.5 mg/kg, Pre-dose, Female NHP) of 0 pg/mL. For the same molecule, the IFN-alpha ([4]; 0.5 mg/kg, Pre-dose, Male NHP) was 0 pg/mL, the “Female NHP Serum G-CSF / EPO Concentration” value ([5]; 0.005 mg/kg IV, 8 hours) was 559 pg/mL and the “Male NHP Serum G-CSF / EPO Concentration” value ([5]; 0.005 mg/kg IV, 8 hours) was 700 pg/mL. For the same molecule, the “Female NHP Serum G-CSF / EPO Concentration” value ([5]; 0.005 mg/kg IV, 24 hours) was 155 pg/mL, the “Male NHP Serum G-CSF / EPO Concentration” value ([5]; 0.005 mg/kg IV, 24 hours) was less than 39 pg/mL and the “Female NHP Serum G-CSF / EPO Concentration” value ([5]; 0.005 mg/kg IV, 48 hours) was less than 39 pg/mL. The “Male NHP Serum G-CSF / EPO Concentration” value ([5]; 0.005 mg/kg IV, 48 hours) was less than 39 pg/mL, the “Female NHP Serum G-CSF / EPO Concentration” value ([5]; 0.005 mg/kg IV, 72 hours) was less than 39 pg/mL and the “Male NHP Serum G-CSF / EPO Concentration” value ([5]; 0.005 mg/kg IV, 72 hours) was less than 39 pg/mL. For the same molecule, the “Female NHP Serum G-CSF / EPO Concentration” value ([5]; 0.005 mg/kg IV, Pre-bleed) was less than 39 pg/mL, the “Male NHP Serum G-CSF / EPO Concentration” value ([5]; 0.005 mg/kg IV, Pre-bleed) was less than 39 pg/mL and the “Female NHP Serum G-CSF / EPO Concentration” value ([5]; 0.05 mg/kg IV, 8 hours) was 3,289 pg/ml. The “Male NHP Serum G-CSF / EPO Concentration” value ([5]; 0.05 mg/kg IV, 8 hours) was 1,722 pg/ml, the “Female NHP Serum G-CSF / EPO Concentration” value ([5]; 0.05 mg/kg IV, 24 hours) was 722 pg/mL and the “Male NHP Serum G-CSF / EPO Concentration” value ([5]; 0.05 mg/kg IV, 24 hours) was 307 pg/mL. For the same molecule, the “Female NHP Serum G-CSF / EPO Concentration” value ([5]; 0.05 mg/kg IV, 48 hours) was less than 39 pg/mL, the “Male NHP Serum G-CSF / EPO Concentration” value ([5]; 0.05 mg/kg IV, 48 hours) was less than 39 pg/mL and the “Female NHP Serum G-CSF / EPO Concentration” value ([5]; 0.05 mg/kg IV, 72 hours) was less than 39 pg/mL. The “Male NHP Serum G-CSF / EPO Concentration” value ([5]; 0.05 mg/kg IV, 72 hours) was less than 39 pg/mL, the “Female NHP Serum G-CSF / EPO Concentration” value ([5]; 0.05 mg/kg IV, Pre-bleed) was less than 39 pg/mL and the “Male NHP Serum G-CSF / EPO Concentration” value ([5]; 0.05 mg/kg IV, Pre-bleed) was less than 39 pg/mL. The “Female NHP Serum G-CSF / EPO Concentration” value ([5]; 0.5 mg/kg IV, 8 hours) was 43,525 pg/ml, the “Male NHP Serum G-CSF / EPO Concentration” value ([5]; 0.5 mg/kg IV, 8 hours) was 43,594 pg/ml and the “Female NHP Serum G-CSF / EPO Concentration” value ([5]; 0.5 mg/kg IV, 24 hours) was 11,374 pg/ml. For the same molecule, the “Male NHP Serum G-CSF / EPO Concentration” value ([5]; 0.5 mg/kg IV, 24 hours) was 3,628 pg/ml, the “Female NHP Serum G-CSF / EPO Concentration” value ([5]; 0.5 mg/kg IV, 48 hours) was 1,100 pg/ml and the “Male NHP Serum G-CSF / EPO Concentration” value ([5]; 0.5 mg/kg IV, 48 hours) was 833 pg/mL. For the same molecule, the “Female NHP Serum G-CSF / EPO Concentration” value ([5]; 0.5 mg/kg IV, 72 hours) was less than 39 pg/mL, the “Male NHP Serum G-CSF / EPO Concentration” value ([5]; 0.5 mg/kg IV, 72 hours) was 306 pg/mL and the “Female NHP Serum G-CSF / EPO Concentration” value ([5]; 0.5 mg/kg IV, Pre-bleed) was less than 39 pg/mL. The “Male NHP Serum G-CSF / EPO Concentration” value ([5]; 0.5 mg/kg IV, Pre-bleed) was less than 39 pg/mL and the “protein expression not detected beyond” value ([5]; NHP IV) was no more than 72 h.
